Test results as given in PMC3139177.

The substances below were run against Recombinant platelet-derived growth factor-BB (UniProt P01127) (assay: SPR).
UniProt P01127, sequence (P01127 82-190): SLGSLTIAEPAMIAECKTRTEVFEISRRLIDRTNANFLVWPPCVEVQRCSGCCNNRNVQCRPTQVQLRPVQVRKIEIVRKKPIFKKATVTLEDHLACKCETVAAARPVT

**Q.** How did the Kd turn out when “Recombinant fibronectin type III repeats 13–14 (domain or fragment)” was run?
**A.** 0.009 µM

**Q.** With “Recombinant fibronectin variable domain (domain or fragment)” as the substance, how does the Kd read?
**A.** 0.141 µM

**Q.** How did the Kd turn out when “Recombinant fibronectin type III repeat 1 (domain or fragment)” was run?
**A.** 0.103 µM
